From patent US20230285582A1 (published 2023) come the findings set out here.

The target of assay [1] is T1, cynomolgus monkey (Macaca fascicularis) TfR1 (cynomolgus monkey (Macaca fascicularis), UniProt Q5RDH6 89-760 (Pongo abelii entry), limits assumed).
T1 construct: also called cTfR1; cyTfR1
T1 chain: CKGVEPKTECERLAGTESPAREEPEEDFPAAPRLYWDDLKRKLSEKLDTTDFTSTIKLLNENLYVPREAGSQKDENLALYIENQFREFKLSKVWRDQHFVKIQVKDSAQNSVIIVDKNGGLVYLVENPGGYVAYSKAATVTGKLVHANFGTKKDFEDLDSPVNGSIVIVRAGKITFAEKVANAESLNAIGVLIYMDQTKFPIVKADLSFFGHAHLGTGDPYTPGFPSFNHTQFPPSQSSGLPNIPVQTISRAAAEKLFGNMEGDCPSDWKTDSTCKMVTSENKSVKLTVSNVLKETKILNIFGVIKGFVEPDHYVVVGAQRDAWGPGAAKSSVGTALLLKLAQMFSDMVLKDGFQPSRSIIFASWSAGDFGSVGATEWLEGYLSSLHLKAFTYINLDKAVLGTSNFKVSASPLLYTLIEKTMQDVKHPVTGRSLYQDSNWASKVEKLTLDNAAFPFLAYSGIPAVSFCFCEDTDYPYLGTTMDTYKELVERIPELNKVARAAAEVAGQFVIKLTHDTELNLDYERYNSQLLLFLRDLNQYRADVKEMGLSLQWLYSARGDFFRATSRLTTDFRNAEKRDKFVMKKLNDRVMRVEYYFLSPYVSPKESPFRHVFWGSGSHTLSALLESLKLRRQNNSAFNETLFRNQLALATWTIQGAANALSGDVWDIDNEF
Put plainly: ELISA, coated recombinant TfR1, Fab-ASO300 conjugate. A general note: An ELISA detects its analyte on a solid surface through an enzyme-linked reagent.

Assay [2] addresses T1, cynomolgus monkey (Macaca fascicularis) …. In words: ELISA, Fab-ASO300 conjugate.

B1: conjugate of humanized anti-TfR Fab 5H12 VH5 (C33D)/Vk4 with DMPK-targeting oligonucleotide ASO300 (Fab, V domains shown)
VH: QVQLVQSGAEVKKPGASVKVSCKASGYSFTDYDINWVRQAPGQGLEWMGWIYPGSGNTRYSERFKGRVTITRDTSASTAYMELSSLRSEDTAVYYCAREDYYPYHGMDYWGQGTLVTVSS
VL: DIVMTQSPDSLAVSLGERATINCRASESVDGYDNSFMHWYQQKPGQPPKLLIFRASNLESGVPDRFSGSGSGTDFTLTISSLQAEDVAVYYCQQSSEDPWTFGQGTKLEIKR
modifications: ASO300 oligonucleotide attached through a cleavable Val-Cit linker (Formula (C)); residue and chain not stated
notes: also called 5H12 (VH5-C33D/Vk4) conjugate; DMPK oligo conjugate
The term EC50 denotes the midpoint of the concentration-response curve. B1: the half-maximal effective concentration (EC50) in assay [1] and in assay [2] was 10.2 nM throughout.

B2: conjugate of humanized anti-TfR Fab 5H12 VH5 (C33Y)/Vk4 with DMPK-targeting oligonucleotide ASO300 (Fab, V domains shown)
VH: QVQLVQSGAEVKKPGASVKVSCKASGYSFTDYYINWVRQAPGQGLEWMGWIYPGSGNTRYSERFKGRVTITRDTSASTAYMELSSLRSEDTAVYYCAREDYYPYHGMDYWGQGTLVTVSS
VL: DIVMTQSPDSLAVSLGERATINCRASESVDGYDNSFMHWYQQKPGQPPKLLIFRASNLESGVPDRFSGSGSGTDFTLTISSLQAEDVAVYYCQQSSEDPWTFGQGTKLEIKR
modifications: ASO300 oligonucleotide attached through a cleavable Val-Cit linker (Formula (C)); residue and chain not stated
notes: also called 5H12 (VH5-C33Y/Vk4) conjugate; DMPK oligo conjugate
Turning to B2, the results for the EC50 in assay [1] and in assay [2] were 3.3 nM and 13.9 nM, respectively.

B3: conjugate of humanized anti-TfR Fab 3A4 VH3 (N54T)/Vk4 with DMPK-targeting oligonucleotide ASO300 (Fab, V domains shown)
VH: EVQLVQSGSELKKPGASVKVSCTASGFNIKDDYMYWVRQPPGKGLEWIGWIDPETGDTEYASKFQDRVTVTADTSTNTAYMELSSLRSEDTAVYYCTLWLRRGLDYWGQGTLVTVSS
VL: DIVMTQSPLSLPVTPGEPASISCRSSKSLLHSNGYTYLFWFQQRPGQSPRLLIYRMSNLASGVPDRFSGSGSGTDFTLKISRVEAEDVGVYYCMQHLEYPFTFGGGTKVEIKR
modifications: ASO300 oligonucleotide attached through a cleavable Val-Cit linker (Formula (C)); residue and chain not stated
notes: also called 3A4 (VH3-N54T/Vk4) conjugate; DMPK oligo conjugate
As to B3, the values for the EC50 in assay [1] and in assay [2] were 4.7 nM and 5.12 nM, respectively.

B4: conjugate of humanized anti-TfR Fab 3M12 VH3/Vk2 with DMPK-targeting oligonucleotide ASO300 (Fab, V domains shown)
VH: QVQLQESGPGLVKPSQTLSLTCSVTGYSITSGYYWNWIRQPPGKGLEWMGYITFDGANNYNPSLKNRVSISRDTSKNQFSLKLSSVTAEDTATYYCTRSSYDYDVLDYWGQGTTVTVSS
VL: DIQMTQSPSSLSASVGDRVTITCRASQDISNFLNWYQQKPGQPVKLLIYYTSRLHSGVPSRFSGSGSGTDFTLTISSLQPEDFATYFCQQGHTLPYTFGQGTKLEIKR
modifications: ASO300 oligonucleotide attached through a cleavable Val-Cit linker (Formula (C)); residue and chain not stated
notes: also called 3M12 (VH3/Vk2) conjugate; DMPK oligo conjugate
As to B4, the EC50 is 2.9 nM in assay [1] and 2.26 nM in assay [2].
